B1: hIL10Ra_VHH14 - hIL2Rg_VHH19, linker GGGSGGGS, tag his (bispecific antibody, not shown: small tags and cut ends)
chain: QVQLQESGGGSVQAGGSLRLSCGASGYTYSSYCMGWFRQVPGKEREGVAVIDSDGSTSYADSVKGRFTISKDNGKNTLYLQMNSLKPEDTAMYYCAADLGHYRPPCGVLYLGMDYWGKGTQVTVSSGGGSGGGSQVQLQESGGGSVQAGGSLRLSCTASGFTFDDREMNWYRQAPGNECELVSTISSDGSTYYADSVKGRFTISQDNAKNTVYLQMDSVKPEDTAVYYCAADFMIAIQAPGAGCWGQGTQVTVSS

The binders below were run against T1, IL10Rα/IL2Rγ receptor (human) (UniProt Q13651) (assay: cell-based or functional assay).
T1 sequence (looked up) 1: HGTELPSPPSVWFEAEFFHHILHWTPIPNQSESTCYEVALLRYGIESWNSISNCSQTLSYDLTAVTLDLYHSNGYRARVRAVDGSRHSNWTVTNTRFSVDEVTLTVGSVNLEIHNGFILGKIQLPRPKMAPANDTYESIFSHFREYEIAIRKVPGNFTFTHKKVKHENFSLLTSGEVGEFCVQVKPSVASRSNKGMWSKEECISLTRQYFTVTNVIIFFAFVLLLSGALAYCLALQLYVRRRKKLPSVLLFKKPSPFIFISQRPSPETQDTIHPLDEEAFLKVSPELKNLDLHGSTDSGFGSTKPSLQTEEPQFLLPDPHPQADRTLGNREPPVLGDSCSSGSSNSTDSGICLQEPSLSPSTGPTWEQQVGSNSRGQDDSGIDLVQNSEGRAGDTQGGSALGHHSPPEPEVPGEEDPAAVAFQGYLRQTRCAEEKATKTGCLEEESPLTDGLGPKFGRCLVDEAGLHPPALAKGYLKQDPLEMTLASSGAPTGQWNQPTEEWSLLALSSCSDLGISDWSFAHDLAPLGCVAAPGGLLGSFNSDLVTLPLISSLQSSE
T1 sequence (looked up) 2: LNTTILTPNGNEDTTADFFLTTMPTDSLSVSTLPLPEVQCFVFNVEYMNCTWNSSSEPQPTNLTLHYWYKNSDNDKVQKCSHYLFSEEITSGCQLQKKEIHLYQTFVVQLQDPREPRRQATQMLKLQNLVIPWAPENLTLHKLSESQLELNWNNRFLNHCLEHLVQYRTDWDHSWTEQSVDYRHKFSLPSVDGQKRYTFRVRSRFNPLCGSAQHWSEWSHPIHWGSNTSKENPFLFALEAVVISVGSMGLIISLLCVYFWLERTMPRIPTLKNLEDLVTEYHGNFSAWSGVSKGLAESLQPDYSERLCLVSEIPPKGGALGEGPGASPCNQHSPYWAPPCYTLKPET

Granzyme A secretion, CD8 T cells, at 0 µM [pg/mL] | Granzyme A secretion, CD8 T cells, at 0.0001 µM [pg/mL] | Granzyme A secretion, CD8 T cells, at 0.001 µM [pg/mL] | Granzyme A secretion, CD8 T cells, at 0.01 µM [pg/mL] | Granzyme A secretion, CD8 T cells, at 0.1 µM [pg/mL] | Granzyme A secretion, CD8 T cells, at 1 µM [pg/mL] | Granzyme A secretion, CD8 T cells, at 10 µM [pg/mL] | Granzyme A secretion, CD8 T cells, at 100 µM [pg/mL] | Granzyme B secretion, CD8 T cells, at 0 µM [pg/mL] | Granzyme B secretion, CD8 T cells, at 0.0001 µM [pg/mL] | Binder
25200 | 19700 | 22300 | 22700 | 26000 | 30100 | 29300 | 24800 | 77700 | 52600 | B1

Same assay, conditions: not given

Granzyme B secretion, CD8 T cells, at 0.001 µM [pg/mL] | Granzyme B secretion, CD8 T cells, at 0.01 µM [pg/mL] | Granzyme B secretion, CD8 T cells, at 0.1 µM [pg/mL] | Granzyme B secretion, CD8 T cells, at 1 µM [pg/mL] | Granzyme B secretion, CD8 T cells, at 10 µM [pg/mL] | Granzyme B secretion, CD8 T cells, at 100 µM [pg/mL] | IFNγ secretion, CD8 T cells, at 0 µM [pg/mL] | IFNγ secretion, CD8 T cells, at 0.0001 µM [pg/mL] | IFNγ secretion, CD8 T cells, at 0.001 µM [pg/mL] | IFNγ secretion, CD8 T cells, at 0.01 µM [pg/mL] | Binder
45500 | 47300 | 62200 | 80500 | 83500 | 78100 | 122000 | 95500 | 108000 | 102000 | B1

Same assay, conditions: not given

IFNγ secretion, CD8 T cells, at 0.1 µM [pg/mL] | IFNγ secretion, CD8 T cells, at 1 µM [pg/mL] | IFNγ secretion, CD8 T cells, at 10 µM [pg/mL] | IFNγ secretion, CD8 T cells, at 100 µM [pg/mL] | IL-1β secretion, LPS treated monocytes, at 0 µM [pg/mL] | IL-1β secretion, LPS treated monocytes, at 0 µM (LPS only) [pg/mL] | IL-1β secretion, LPS treated monocytes, at 0.0001 µM [pg/mL] | IL-1β secretion, LPS treated monocytes, at 0.001 µM [pg/mL] | IL-1β secretion, LPS treated monocytes, at 0.01 µM [pg/mL] | IL-1β secretion, LPS treated monocytes, at 0.1 µM [pg/mL] | Binder
122000 | 142000 | 143000 | 120000 | 6240 | 6880 | 5950 | 6200 | 4960 | 5590 | B1

Same assay, conditions: not given

IL-1β secretion, LPS treated monocytes, at 1 µM [pg/mL] | IL-1β secretion, LPS treated monocytes, at 10 µM [pg/mL] | IL-1β secretion, LPS treated monocytes, at 100 µM [pg/mL] | IL-9 secretion, CD8 T cells, at 0 µM [pg/mL] | IL-9 secretion, CD8 T cells, at 0.0001 µM [pg/mL] | IL-9 secretion, CD8 T cells, at 0.001 µM [pg/mL] | IL-9 secretion, CD8 T cells, at 0.01 µM [pg/mL] | IL-9 secretion, CD8 T cells, at 0.1 µM [pg/mL] | IL-9 secretion, CD8 T cells, at 1 µM [pg/mL] | IL-9 secretion, CD8 T cells, at 10 µM [pg/mL] | Binder
5670 | 6020 | 6840 | 1350 | 988 | 1050 | 1010 | 1300 | 1380 | 1880 | B1

Same assay, conditions: not given

IL-9 secretion, CD8 T cells, at 100 µM [pg/mL] | Binder
1700 | B1
